Data: patent publication US8575113

Experiments:
[1] = molecular target: GST-XIAP linker BIR 2 [GST: P08515]
[2] = molecular target: GST-linker BIR 2 BIR3Ring
GST-linker BIR 2 BIR3Ring, sequence (chain, as listed by the source): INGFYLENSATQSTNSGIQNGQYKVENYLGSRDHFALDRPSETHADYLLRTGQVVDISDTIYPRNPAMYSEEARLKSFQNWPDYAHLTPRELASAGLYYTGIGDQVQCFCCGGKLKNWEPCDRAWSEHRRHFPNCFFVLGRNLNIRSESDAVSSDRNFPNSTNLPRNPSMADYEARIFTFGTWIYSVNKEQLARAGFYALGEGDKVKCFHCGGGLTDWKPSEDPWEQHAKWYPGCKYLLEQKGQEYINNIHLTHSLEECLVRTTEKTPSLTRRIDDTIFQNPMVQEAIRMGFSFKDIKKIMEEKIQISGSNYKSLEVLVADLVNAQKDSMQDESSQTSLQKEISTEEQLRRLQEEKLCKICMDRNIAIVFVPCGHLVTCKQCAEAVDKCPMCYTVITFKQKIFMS

B1: caspase-3 (protein)
chain: SGISLDNSYKMDYPEMGLCIIINNKNFHKSTGMTSRSGTDVDAANLRETFRNLKYEVRNKNDLTREEIVELMRDVSKEDHSKRSSFVCVLLSHGEEGIIFGTNGPVDLKKITNFFRGDRCRSLTGKPKLFIIQACRGTELDCGIETDSGVDDDMACHKIPVEADFLYAYSTAPGYYSWRNSKDGSWFIQSLCAMLKQYADKLEFMHILTRVNRKVATEFESFSFDATFHAKKQIPCIVSMLTKELYFYH
**Q.** Which results are given for B1?
**A.** Caspase 3 activity (DEVD-AMC hydrolysis, Vo of AMC fluorescence/sec) [1]: caspase-3 was inhibited by linker-BIR2 or linker BIR2-BIR3-RING of XIAP; Caspase 3 activity (DEVD-AMC hydrolysis, Vo of AMC fluorescence/sec) [2]: caspase-3 was inhibited by linker-BIR2 or linker BIR2-BIR3-RING of XIAP
